1 protein from paper doi:10.1101/2021.09.03.458882 (bioRxiv, 2021) can be followed below.

The series deals with the molecule itself. The experiment in a line: FRET or BRET. In general terms: BRET reads energy transfer from a luciferase to a nearby fluorophore.

B1: Glucose oxidase (from Aspergillus niger) (enzyme, UniProt P13006 17-605, looked up)
chain: LPHYIRSNGIEASLLTDPKDVSGRTVDYIIAGGGLTGLTTAARLTENPNISVLVIESGSYESDRGPIIEDLNAYGDIFGSSVDHAYETVELATNNQTALIRSGNGLGGSTLVNGGTWTRPHKAQVDSWETVFGNEGWNWDNVAAYSLQAERARAPNAKQIAAGHYFNASCHGVNGTVHAGPRDTGDDYSPIVKALMSAVEDRGVPTKKDFGCGDPHGVSMFPNTLHEDQVRSDAAREWLLPNYQRPNLQVLTGQYVGKVLLSQNGTTPRAVGVEFGTHKGNTHNVYAKHEVLLAAGSAVSPTILEYSGIGMKSILEPLGIDTVVDLPVGLNLQDQTTATVRSRITSAGAGQGQAAWFATFNETFGDYSEKAHELLNTKLEQWAEEAVARGGFHNTTALLIQYENYRDWIVNHNVAYSELFLDTAGVASFDVWDLLPFTRGYVHILDKDPYLHHFAYDPQYFLNELDLLGQAAATQLARNISNSGAMQTYFAGETIPGDNLAYDADLSAWTEYIPYHFRPNYHGVGTCSMMPKEMGGVVDNAARVYGVQGLRVIDGSIPPTQMSSHVMTVFYAMALKISDAILEDYASMQ
modifications: amine reactive dye Alexa Fluor 488 on one population and Alexa Fluor 532 on the other
In the case of B1, the binding result is “binds”.
